Results published in patent US20210263001A1, “IMMOBILIZED ENZYMES AND MICROSOMES ON MAGNETIC SCAFFOLDS” (ZYMtronix Catalytic Systems, Inc., priority 2018, published 2021).

Target: T1, UGT1A6 (Homo sapiens, UniProt P19224)
T1 construct: purchased Corning 456416
T1 sequence (P19224 27-532): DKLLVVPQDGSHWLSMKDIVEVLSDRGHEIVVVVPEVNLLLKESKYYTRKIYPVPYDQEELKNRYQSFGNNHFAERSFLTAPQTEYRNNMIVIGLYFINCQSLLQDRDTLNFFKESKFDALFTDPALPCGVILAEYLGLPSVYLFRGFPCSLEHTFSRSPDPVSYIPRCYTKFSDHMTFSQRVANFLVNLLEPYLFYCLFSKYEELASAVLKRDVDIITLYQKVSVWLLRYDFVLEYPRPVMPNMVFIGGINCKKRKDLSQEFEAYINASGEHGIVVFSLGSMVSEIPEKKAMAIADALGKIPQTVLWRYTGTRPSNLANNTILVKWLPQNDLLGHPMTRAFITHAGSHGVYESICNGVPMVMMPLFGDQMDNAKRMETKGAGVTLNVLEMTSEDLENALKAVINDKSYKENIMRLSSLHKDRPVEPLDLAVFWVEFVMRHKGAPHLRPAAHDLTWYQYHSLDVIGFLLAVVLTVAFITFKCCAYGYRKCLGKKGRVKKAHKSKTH
Assay: Activity of UGT1A6 immobilized on magnetite powder, BioVision fluorometric UGT activity assay (Example 10)
Assay type: biochemical
Settings: 2 hours, 37° C., 500 μl reaction
Description: The UGT1A6 stock (5 mg/mL) was rapidly thawed in a […] and diluted in cold 50 mM Tris pH 7.0 to a final concentration of 25 μg/ml. 500 μl of UGT1A6 solution was added to 5 mg of magnetite powder and incubated for 1 hour at 4° C. with shaking. The immobilization yield was quantified by the Bradford method (Bradford reagent: Quick Start™ Bradford 1× Dye Reagent #5000205 from BioRad) by comparing it to UGT1A6 enzyme standards.
A fluorometric assay (BioVision UGT Activity Assay/Ligand Screening Kit, Cat #K692) was used to measure the activity of the free and immobilized UGT1A6. The assay utilizes a highly fluorescent UGT substrate and measures UGT activity by tracking the drop in fluorescence emission as the substrate is converted into a non-fluorescent glucuronide. UGT specific activity is calculated by comparing the fluorescence loss versus a control reaction performed in the absence of the required cofactor UDPGA. Duplicate reactions were performed in 0.5 dram glass vials (VWR® Vials, Borosilicate Glass, with Phenolic Screw Cap) with 500 μl reaction volumes at 37° C. with shaking for 2 hours. UGT1A6 reactions contained BioVision UGT Assay buffer with Alamethicin, BioVision UGT subtrate and the UDPGA cofactor. […] The product was detected by fluorescence at Ex/Em=415/502 nm and quantitated by comparing the drop in fluorescence to a standard curve of UGT substrate fluorescence.

B1: free UGT: Non-immobilized Corning Supersomes Human UGT1A6 enzyme (protein, UniProt P19224 27-532, looked up)
UDP-glucuronosyltransferase …: DKLLVVPQDGSHWLSMKDIVEVLSDRGHEIVVVVPEVNLLLKESKYYTRKIYPVPYDQEELKNRYQSFGNNHFAERSFLTAPQTEYRNNMIVIGLYFINCQSLLQDRDTLNFFKESKFDALFTDPALPCGVILAEYLGLPSVYLFRGFPCSLEHTFSRSPDPVSYIPRCYTKFSDHMTFSQRVANFLVNLLEPYLFYCLFSKYEELASAVLKRDVDIITLYQKVSVWLLRYDFVLEYPRPVMPNMVFIGGINCKKRKDLSQEFEAYINASGEHGIVVFSLGSMVSEIPEKKAMAIADALGKIPQTVLWRYTGTRPSNLANNTILVKWLPQNDLLGHPMTRAFITHAGSHGVYESICNGVPMVMMPLFGDQMDNAKRMETKGAGVTLNVLEMTSEDLENALKAVINDKSYKENIMRLSSLHKDRPVEPLDLAVFWVEFVMRHKGAPHLRPAAHDLTWYQYHSLDVIGFLLAVVLTVAFITFKCCAYGYRKCLGKKGRVKKAHKSKTH
modifications: Supersomes microsomal preparation
notes: Non-immobilized Corning Supersomes Human UGT1A6 enzyme
With B1 the “BioVision UGT Activity Assay substrate consumed (average)” value was 0.58 ± 0.39 nmol.
